For 2 molecules, IL-23 stimulated IL-17 production results are on record in patent US20220259301A1.

This assay addresses human IL-23 (human) (UniProt Q9NPF7).
Chain of UniProt Q9NPF7 (Q9NPF7 20-189, chain 1 of 2): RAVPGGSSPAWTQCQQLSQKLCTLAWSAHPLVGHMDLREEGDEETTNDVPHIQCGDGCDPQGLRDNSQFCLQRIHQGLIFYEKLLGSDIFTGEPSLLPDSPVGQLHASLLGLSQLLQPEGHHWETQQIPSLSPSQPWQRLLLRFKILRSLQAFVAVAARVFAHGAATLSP
Chain of UniProt Q9NPF7 (chain, as listed by the source, chain 2 of 2): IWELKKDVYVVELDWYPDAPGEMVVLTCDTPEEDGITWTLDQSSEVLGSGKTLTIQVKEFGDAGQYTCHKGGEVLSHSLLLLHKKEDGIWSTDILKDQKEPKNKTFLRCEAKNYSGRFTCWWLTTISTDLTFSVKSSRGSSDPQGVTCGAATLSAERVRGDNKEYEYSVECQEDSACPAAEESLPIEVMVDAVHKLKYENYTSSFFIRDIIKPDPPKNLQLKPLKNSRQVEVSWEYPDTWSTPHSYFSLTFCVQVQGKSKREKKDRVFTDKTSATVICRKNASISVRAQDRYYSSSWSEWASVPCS

In the case of ustekinumab (antibody), the IL-23 stimulated IL-17 production is 167 pM.

B1: Risankizumab (antibody, V domains shown)
VH: QVQLVQSGAEVKKPGSSVKVSCKASGYTFTDQTIHWMRQAPGQGLEWIGYIYPRDDSPKYNENFKGKVTITADKSTSTAYMELSSLRSEDTAVYYCAIPDRSGYAWFIYWGQGTLVTVSS
VL: DIQMTQSPSSLSASVGDRVTITCKASRDVAIAVAWYQQKPGKVPKLLIYWASTRHTGVPSRFSGSGSRTDFTLTISSLQPEDVADYFCHQYSSYPFTFGSGTKLEIKR
Turning to B1, the IL-23 stimulated IL-17 production is < 10 pM.
